Results on six molecules are retold here after patent US20200369765A1 (INNATE PHARMA, published 2020).

Test [1] deals with T1, Cynomolgus Siglec (cynomolgus).
T1 construct: Expressed on transfected CHO cells; also called Siglec-Cyno; cynoSiglec
Kind of test: flow cytometry, CHO transfectants. As for the experimental part: (§1) Binding of antibodies on human Siglec-7, human Siglec-9 and Cynomolgus Siglec-9 was tested by titration experiment by flow cytometry on CHO cells transfected with human Siglec-7 and human Siglec-9 and Cynomolgus Siglec-9. Cells were incubated 1h in Staining Buffer (SB) with primary antibodies at 20 ug/ml and a series of dilution of 1:5. They were washed three times with SB, then incubated 30 min with a goat F(ab′)² Anti-human IgG (Fc) PE (Beckman Coulter #1M05510), and washed twice with SB.
For orientation: Flow cytometry measures light scatter and fluorescence of single cells or particles in a stream.

Test [2] deals with T2, Human Siglec-7 (human, UniProt Q9Y286 19-467).
T2 construct: Expressed on transfected CHO cells; also called huSiglec-7; CD328
T2 sequence (Q9Y286 19-467): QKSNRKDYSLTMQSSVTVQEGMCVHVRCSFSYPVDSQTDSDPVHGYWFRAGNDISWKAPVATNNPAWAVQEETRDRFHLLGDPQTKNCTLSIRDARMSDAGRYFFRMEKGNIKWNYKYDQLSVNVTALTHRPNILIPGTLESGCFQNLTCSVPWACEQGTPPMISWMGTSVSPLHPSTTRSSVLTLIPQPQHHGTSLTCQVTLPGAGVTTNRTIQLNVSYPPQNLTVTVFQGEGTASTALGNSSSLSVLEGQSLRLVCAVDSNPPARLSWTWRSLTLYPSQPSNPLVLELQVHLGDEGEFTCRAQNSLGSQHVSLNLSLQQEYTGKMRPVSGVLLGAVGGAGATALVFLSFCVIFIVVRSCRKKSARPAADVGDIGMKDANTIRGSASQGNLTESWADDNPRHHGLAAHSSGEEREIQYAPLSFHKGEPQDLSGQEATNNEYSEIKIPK
Kind of test: flow cytometry, CHO transfectants. As for the experimental part: as §1

Test [3] deals with T3, Human Siglec-9 (human, UniProt Q9Y336 18-463).
T3 construct: On transfected CHO cells; also on YTS and KHYG-1 transfectants, primary NK cells and moDC; also called huSiglec-9; CD329
T3 sequence (Q9Y336 18-463): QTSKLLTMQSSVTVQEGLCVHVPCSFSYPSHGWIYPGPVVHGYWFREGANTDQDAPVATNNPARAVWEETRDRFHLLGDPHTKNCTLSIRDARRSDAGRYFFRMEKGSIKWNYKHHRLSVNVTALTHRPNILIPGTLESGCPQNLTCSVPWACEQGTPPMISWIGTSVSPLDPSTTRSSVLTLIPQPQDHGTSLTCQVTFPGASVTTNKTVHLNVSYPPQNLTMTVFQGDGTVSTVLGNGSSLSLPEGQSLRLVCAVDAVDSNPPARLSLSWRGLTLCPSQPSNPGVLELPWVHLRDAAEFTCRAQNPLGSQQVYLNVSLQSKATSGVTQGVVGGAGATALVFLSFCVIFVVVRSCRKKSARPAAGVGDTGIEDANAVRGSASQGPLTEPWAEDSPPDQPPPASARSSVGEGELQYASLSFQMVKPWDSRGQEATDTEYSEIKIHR
As to the kind of experiment: flow cytometry, CHO transfectants. The protocol: as §1

Test [4] has as its target T4, Human Siglec-3 (human, UniProt P20138 18-364).
T4 construct: Expressed on transfected CHO cells; also called HuSiglec-3; CD33
Kind of test: flow cytometry, CHO transfectants.

In test [5] the target is T5, Human Siglec-5 (human, UniProt O15389 17-551).
T5 construct: Expressed on transfected CHO cells; also called HuSiglec-5
T5 sequence: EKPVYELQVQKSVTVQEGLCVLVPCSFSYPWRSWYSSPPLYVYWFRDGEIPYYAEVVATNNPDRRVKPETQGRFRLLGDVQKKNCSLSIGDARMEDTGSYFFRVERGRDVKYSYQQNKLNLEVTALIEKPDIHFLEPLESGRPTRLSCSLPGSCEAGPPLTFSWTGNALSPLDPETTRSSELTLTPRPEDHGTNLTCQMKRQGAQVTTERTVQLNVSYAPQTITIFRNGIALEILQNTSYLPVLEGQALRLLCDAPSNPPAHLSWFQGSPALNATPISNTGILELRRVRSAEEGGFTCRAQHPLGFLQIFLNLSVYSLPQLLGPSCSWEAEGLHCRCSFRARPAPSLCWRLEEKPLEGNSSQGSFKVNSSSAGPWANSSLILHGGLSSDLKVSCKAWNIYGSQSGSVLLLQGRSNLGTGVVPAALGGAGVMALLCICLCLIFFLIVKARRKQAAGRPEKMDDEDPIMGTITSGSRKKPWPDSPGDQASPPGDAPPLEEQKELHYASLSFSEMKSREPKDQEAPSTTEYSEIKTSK
Kind of test: flow cytometry, CHO transfectants.

For test [6], the target named is T6, Human Siglec-11 (human, UniProt Q96RL6 29-698).
T6 construct: Expressed on transfected CHO cells; also called HuSiglec-11
T6 sequence: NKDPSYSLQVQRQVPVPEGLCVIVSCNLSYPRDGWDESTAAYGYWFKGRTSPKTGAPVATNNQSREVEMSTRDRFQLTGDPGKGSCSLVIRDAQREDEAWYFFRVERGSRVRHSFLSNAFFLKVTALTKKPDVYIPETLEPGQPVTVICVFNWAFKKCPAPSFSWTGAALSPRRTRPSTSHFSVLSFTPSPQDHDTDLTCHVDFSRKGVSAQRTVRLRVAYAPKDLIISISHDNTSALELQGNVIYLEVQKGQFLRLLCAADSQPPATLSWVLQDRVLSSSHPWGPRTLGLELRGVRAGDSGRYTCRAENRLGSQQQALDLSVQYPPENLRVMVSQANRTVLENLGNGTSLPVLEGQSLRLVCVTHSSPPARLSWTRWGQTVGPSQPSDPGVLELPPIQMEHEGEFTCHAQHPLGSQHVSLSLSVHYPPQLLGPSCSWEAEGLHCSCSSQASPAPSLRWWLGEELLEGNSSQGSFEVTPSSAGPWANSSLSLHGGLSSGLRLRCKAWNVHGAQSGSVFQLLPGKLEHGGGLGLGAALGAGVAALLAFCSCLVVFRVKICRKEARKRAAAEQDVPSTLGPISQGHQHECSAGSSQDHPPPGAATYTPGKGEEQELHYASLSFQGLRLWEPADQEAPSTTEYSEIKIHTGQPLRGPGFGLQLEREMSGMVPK
Kind of test: flow cytometry, CHO transfectants.

The target in test [7] is T7, Human Siglec-6 (human, UniProt O43699 27-453).
T7 construct: Expressed on transfected CHO cells; also called HuSiglec-6
T7 sequence (O43699 other isoform, or with tags, fused parts or gaps): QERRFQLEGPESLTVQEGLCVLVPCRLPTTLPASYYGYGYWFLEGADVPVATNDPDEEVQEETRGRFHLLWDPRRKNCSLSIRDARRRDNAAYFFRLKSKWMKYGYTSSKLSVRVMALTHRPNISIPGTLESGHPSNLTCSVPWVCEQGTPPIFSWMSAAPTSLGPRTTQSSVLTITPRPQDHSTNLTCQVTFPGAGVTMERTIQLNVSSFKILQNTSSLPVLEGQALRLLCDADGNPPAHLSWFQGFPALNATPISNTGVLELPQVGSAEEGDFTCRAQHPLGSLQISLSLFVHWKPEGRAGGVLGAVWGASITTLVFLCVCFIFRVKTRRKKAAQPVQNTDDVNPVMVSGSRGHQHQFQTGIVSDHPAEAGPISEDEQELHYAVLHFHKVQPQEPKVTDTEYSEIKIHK
Kind of test: flow cytometry, CHO transfectants.

Test [8] has as its target T8, Human Siglec-12 (human, UniProt Q96PQ1 19-595).
T8 construct: Expressed on transfected CHO cells; also called HuSiglec-12
Kind of test: flow cytometry, CHO transfectants.

The target in test [9] is T9, Human Siglec-10 (human, UniProt Q96LC7 17-697).
T9 construct: Expressed on transfected CHO cells; also called HuSiglec-10
T9 sequence: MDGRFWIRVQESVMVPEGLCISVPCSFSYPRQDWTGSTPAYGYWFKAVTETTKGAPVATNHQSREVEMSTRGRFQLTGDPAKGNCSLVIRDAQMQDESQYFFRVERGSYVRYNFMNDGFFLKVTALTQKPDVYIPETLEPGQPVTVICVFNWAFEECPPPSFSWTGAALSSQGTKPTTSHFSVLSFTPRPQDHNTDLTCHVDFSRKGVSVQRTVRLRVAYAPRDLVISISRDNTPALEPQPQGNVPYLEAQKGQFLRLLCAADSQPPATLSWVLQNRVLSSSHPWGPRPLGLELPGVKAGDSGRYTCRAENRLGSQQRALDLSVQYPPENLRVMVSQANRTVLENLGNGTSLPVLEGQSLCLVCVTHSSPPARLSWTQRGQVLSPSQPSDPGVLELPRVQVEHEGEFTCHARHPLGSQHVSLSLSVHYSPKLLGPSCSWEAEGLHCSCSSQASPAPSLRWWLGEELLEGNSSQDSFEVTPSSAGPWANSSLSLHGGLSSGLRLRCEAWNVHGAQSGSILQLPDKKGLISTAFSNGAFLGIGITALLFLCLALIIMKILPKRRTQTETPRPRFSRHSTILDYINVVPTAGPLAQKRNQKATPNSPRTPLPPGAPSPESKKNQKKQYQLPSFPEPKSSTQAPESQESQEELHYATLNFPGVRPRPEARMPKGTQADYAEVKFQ
As to the kind of experiment: flow cytometry, CHO transfectants.

Test [10] has as its target T10, Human Siglec-8 (human, UniProt Q9NYZ4 17-499).
T10 construct: Expressed on transfected CHO cells; also called HuSiglec-8
As to the kind of experiment: flow cytometry, CHO transfectants.

Test [11] has as its target T11, Human Siglec-9 N-terminal V-set Ig-like domain (human).
T11 construct: expressed on HEK293T cells
Kind of test: flow cytometry, HEK293T cells expressing single Siglec-9 domains.

Test [12] has as its target T12, Human Siglec-9 mutant M7 (human, UniProt Q9Y336 18-463).
T12 construct: Expressed on HEK293T cells; also called Mutant 7
As to the kind of experiment: flow cytometry, HEK293T transfectants.

T12 sequence (Q9Y336 other isoform, or with tags, fused parts or gaps mutant): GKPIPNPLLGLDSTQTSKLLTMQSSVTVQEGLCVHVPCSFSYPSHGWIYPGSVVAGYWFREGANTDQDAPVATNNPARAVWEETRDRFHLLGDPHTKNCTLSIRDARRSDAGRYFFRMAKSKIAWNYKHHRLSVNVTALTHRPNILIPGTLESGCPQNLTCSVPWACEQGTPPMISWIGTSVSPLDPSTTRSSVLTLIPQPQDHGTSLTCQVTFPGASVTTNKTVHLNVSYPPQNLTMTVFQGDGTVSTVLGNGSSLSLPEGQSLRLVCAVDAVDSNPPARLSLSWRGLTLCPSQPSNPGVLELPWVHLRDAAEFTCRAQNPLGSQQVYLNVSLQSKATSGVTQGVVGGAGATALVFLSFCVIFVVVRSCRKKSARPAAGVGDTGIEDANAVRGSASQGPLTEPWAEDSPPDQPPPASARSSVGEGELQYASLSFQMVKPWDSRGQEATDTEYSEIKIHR
T10 sequence (Q9NYZ4 17-499): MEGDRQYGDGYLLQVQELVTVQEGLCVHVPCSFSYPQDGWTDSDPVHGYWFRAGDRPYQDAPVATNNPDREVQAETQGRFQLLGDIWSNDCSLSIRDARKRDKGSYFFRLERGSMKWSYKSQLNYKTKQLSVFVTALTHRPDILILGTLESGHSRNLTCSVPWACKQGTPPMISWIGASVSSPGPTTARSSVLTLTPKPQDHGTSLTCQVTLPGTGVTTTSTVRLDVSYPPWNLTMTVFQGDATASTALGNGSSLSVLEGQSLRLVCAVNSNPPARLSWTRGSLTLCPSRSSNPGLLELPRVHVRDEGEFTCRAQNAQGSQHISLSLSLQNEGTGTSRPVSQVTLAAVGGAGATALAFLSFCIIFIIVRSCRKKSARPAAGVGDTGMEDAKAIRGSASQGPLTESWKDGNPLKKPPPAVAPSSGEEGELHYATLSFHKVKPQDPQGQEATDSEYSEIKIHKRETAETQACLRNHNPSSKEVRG
T1 sequence (chain, as listed by the source limits assumed): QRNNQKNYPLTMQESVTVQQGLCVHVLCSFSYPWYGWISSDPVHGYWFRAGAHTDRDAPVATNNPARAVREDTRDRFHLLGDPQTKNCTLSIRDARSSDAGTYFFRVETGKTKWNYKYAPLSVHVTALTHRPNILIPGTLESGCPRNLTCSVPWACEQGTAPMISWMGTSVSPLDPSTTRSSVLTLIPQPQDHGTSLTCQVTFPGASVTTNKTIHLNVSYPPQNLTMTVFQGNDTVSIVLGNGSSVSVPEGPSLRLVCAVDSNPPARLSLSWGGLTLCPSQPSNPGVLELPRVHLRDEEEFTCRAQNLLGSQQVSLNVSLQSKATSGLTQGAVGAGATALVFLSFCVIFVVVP
T11 sequence (chain, as listed by the source limits assumed): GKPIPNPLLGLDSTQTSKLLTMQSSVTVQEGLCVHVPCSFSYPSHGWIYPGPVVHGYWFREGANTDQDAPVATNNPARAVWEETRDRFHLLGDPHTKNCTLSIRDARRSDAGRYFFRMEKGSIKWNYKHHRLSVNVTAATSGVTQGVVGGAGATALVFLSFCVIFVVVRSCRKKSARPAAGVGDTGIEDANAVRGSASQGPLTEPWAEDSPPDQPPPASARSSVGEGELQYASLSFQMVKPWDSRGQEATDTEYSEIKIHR
T4 sequence (P20138 18-364 R69G): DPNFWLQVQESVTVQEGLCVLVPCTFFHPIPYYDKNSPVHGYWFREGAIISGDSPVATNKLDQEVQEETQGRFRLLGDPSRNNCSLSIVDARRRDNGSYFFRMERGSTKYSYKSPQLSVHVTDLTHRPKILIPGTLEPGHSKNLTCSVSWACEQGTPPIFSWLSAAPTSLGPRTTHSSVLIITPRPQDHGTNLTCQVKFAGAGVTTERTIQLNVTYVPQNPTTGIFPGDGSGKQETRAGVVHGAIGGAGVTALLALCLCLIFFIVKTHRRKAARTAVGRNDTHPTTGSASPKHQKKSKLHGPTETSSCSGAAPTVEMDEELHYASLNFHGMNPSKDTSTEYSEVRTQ
T8 sequence (Q96PQ1 19-595): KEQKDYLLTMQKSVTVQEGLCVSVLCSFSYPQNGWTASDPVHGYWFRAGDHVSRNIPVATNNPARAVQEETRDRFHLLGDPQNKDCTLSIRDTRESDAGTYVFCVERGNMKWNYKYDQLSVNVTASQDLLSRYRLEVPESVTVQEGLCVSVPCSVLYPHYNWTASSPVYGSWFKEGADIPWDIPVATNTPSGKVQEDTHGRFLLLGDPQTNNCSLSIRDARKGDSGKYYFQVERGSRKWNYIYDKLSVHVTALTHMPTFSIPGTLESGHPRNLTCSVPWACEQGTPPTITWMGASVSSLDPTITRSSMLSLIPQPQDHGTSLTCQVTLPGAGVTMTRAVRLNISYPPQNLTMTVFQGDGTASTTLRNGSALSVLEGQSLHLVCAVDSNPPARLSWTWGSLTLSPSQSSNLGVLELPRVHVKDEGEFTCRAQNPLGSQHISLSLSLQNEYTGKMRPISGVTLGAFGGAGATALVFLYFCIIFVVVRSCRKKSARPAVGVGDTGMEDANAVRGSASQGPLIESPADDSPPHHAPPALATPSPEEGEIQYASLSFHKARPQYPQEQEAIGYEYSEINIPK

B1: mAb4 (antibody, human IgG1, V domains shown)
VH: DVQLVESGGDLVKPGGSLKLSCAASGFAFSSYDMSWVRQSPEKRLEWIAHIGSGGGNIYYPDTVKGRFTISRDNAKNTLYLQMRSLKSEDTAMYYCARLIFTTGFYGMDYWGQGTSVTVSS
VL: DIQMTQTTSSLSASLGDRVTISCRASQDISSYLNWYQQKPDGTIKLLIYYTSRLHSGVPSRFSGSGSGTDYSLTISNLDQDDIATYFCQQGNALPWTFGGGTKLEIK
Turning to B1, the results for the 50% effective concentration (EC50) in test [1], in test [2] and in test [3] were 0.17 µg/mL, 0.17 µg/mL and 0.28 µg/mL, respectively. Also, the binding result in [4], in [5], in test [6], in [7], in test [8] and in [9] was “no binding” each time. The binding result in [10] is “no binding”.

B2: mAb1 (antibody, human IgG1, V domains shown)
VH: DVQLQESGPGLVKPSQSLSLTCTVTGYSITGGFAWNWIRQFPGNTLEWMGYIGYGGSTSYNPSLNSRISITRDTSKNHFFLQFNSVTTDDSATYYCARGDYLFAYWGQGTLVTVSA
VL: DIVMTQSHKFMSTSVGDRVSITCKASQDVNTAVAWYQQKPGQSPKLLIYSASYRYTGVPDRFTGSGSGTDFTFTISSVQAEDLAVYYCQQHYSTPRTFGGGTKLEIK
B2: the binding result was “binds” in [11]; “no binding” in [4]; “no binding” in [5]; “no binding” in test [6]; “no binding” in test [7]; “binds” in test [8]. Also, the figures for the binding result in test [9], in test [10] and in [12] were “no binding”, “no binding” and “binds”, respectively. Moreover, the 50% effective concentration (EC50) in [1] was found to be 0.67 µg/mL; in [2] it was 0.21 µg/mL; in [3], 0.11 µg/mL.

B3: mAb3 (antibody, human IgG1, V domains shown)
VH: EVQLLETGPGLVKPSQSLSLTCTVTGYSITGGFAWNWIRQFPGNTLEWMGYIGYGGSTSYNPSLNSRISITRDTSKNHFFLQFNSVTTEDSATYYCARGDYLFAYWGQGTLVTVSA
VL: DILMTQSPASLSASVGETVSITCRASGNIHNYLAWYLQRQGKSPQLLVYNAKTLADGVPSRFSGTGSGTQFSLKINSLQPEDFGSYYCQHFWSTPRTFGGGTKLEIK
Turning to B3, the binding result in [11] is recorded as “binds”; in test [4], “no binding”; in [5], “no binding”; in [6] it was “no binding”; in test [7] it was “no binding”; in test [8], “binds”. For the same molecule, the binding result in [9] is “no binding”; in test [10], “no binding”; in test [12] it was “binds”. In addition, the 50% effective concentration (EC50) in [1] is 0.85 µg/mL; in test [2] it was 0.22 µg/mL; in [3], 0.23 µg/mL.

B4: mAb2 (antibody, human IgG1, V domains shown)
VH: EVQLQESGPGLVKPSQSLSLTCTVTGYSITGGFAWNWIRQFPGNTLEWMGYIGYGGSTSYNPSLNSRISITRDTSKNHFFLQFNSVTTEDSATYYCARGDYLFAYWGQGTLVTVSA
VL: DIVMTQSHKFMSTSVGDRVSITCKASQDVNTAVAWYQQKPGQSPKLLIYSASYRYTGVPDRFTGSGSGTDFTFTISSVQAEDLAVYYCQQHYSTPRTFGGGTKLEIK
Take B4: the binding result in test [11] is “binds”; in test [4], “no binding”; in test [5], “no binding”; in test [6], “no binding”; in test [7] it was “no binding”; in test [8], “binds”. Further, the binding result in test [9] is “no binding”; in test [10] it was “no binding”; in test [12], “binds”. Besides, the concentration giving a half-maximal response (EC50) was found to be 0.53 µg/mL in test [1], 0.17 µg/mL in test [2] and 0.08 µg/mL in test [3].

B5: mAb5 (antibody, human IgG1, V domains shown)
VH: EIQLQQSGPELEKPGASVKISCKASGYSFSDYNMNWVKQSNGKSLEWIGNIDPYYGATSYNQRFKGKATLTVDKSSSTAYMQLKSLTSEDSAVYYCARGDSLFAYWGHGTLVTVSA
VL: DIVMTQSQEFMSTSLGDRVSVTCKASQNVGTNVAWYQQKPGQSPKALLYSASSRYSGVPDRFTGSGSGTDFTLTISNVQSEDLAEYFCQQYITYPYTFGGGTKLEIK
B5: the concentration for a half-maximal effect (EC50) in [1] was 0.14 µg/mL; in test [2], 0.22 µg/mL; in [3], 0.26 µg/mL. The binding result in [4], in test [5], in test [6], in [7], in test [8] and in test [9] was “no binding” each time. The binding result in test [10] is given as “no binding”.

B6: mAb6 (antibody, human IgG1, V domains shown)
VH: EIQLQQSGPELEKPGASVKISCKASGYSFSDYNMNWVKQSNGKSLEWIGNIDPYYGATSYNQRFKGKATLTVDKSSSTAYMQLKSLTSEDSAVYYCARGDSLFAYWGQGTLVTVSA
VL: DIVMTQSQEFMSTSLGDRVSVTCKASQNVGTNVAWYQQKPGQSPKALLYSASSRYSGVPDRFTGSGSGTDFTLTINNMQSEDLAEYFCQQYITYPYTFGGGTKLEIK
On to B6, for which the half-maximal effective concentration (EC50) in test [1] is 0.17 µg/mL; in test [2], 0.33 µg/mL; in test [3], 0.31 µg/mL. Moreover, the binding result in test [4], in test [5], in test [6], in [7], in [8] and in [9] was “no binding” throughout. In addition, the binding result in test [10] is “no binding”.

The EC50 is the midpoint of the concentration-response curve. Lower therefore signals higher potency in that assay.
